Target: TssL-His expressed in A. tumefaciens ΔtssMΔtssL (pTrc-TssL-His) (Agrobacterium tumefaciens)
Assay: pull-down

Substance: Hcp, endogenous in A. tumefaciens (natural protein)
- Hcp signal relative to TssL-His in the bound fraction, H2O-treated cells: 0.21
